According to the supplement of paper PMC10567573:

B1: C2CD2L (parent)
chain: EPAGSLRELGVWRSLLRLRATRAG
B2: TOR1AIP2 (parent)
chain: DGAGRTWQDSDTVKLLVDLELSYG

Variants of: B1
Experiment: protein stability index of a GFP-peptide fusion (GPS, HEK-293T) (PSI 1-6); higher = more stable
Details: c terminus: a fixed tail appended
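Further: lentivirally expressed fusions sorted by FACS into six bins by GFP to DsRed ratio, PSI derived from sequencing read proportions per bin multiplied by bin number.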

Protein stability index of substitutions, site by site:
R19: L 2.95 | Y 1.48 | D 2.73 | W 2.22 | H 1.85 | V 2.31 | S 3.27 | I 2.24 | Q 1.98 | K 2.99 | M 2.2 | T 2.91
A23: Q 2.23 | K 2.94 | M 1.62 | H 2.05 | F 1.07 | P 2.47 | Y 2.75 | R 3.33 | W 2.28 | T 2.29 | L 2.2 | C 1.7
R22: G 2.36 | S 2.23 | F 2.1 | H 2.01 | Y 1.34 | K 2.66 | D 2.3 | E 2.25 | P 2.14
G24: C 2.99 | F 2.11 | P 1.96 | V 2.25 | N 1.91 | D 2.66 | Q 2.77 | I 1.97 | W 3.29 | A 2.89 | Y 1.99 | L 2.87
A20: D 3.34 | H 2.67 | Q 2.04 | T 1.85 | M 2.48 | E 3 | L 2.58 | P 3.18 | S 1.94
L18: R 3.54 | C 2.67 | S 3.53 | P 3.97 | D 2.64 | F 2.07 | I 2.65 | W 1.53 | A 3.73
R17: L 1.53 | M 1.2 | S 3.04 | W 1.6 | T 2.3 | G 3.26 | I 2.46 | H 2.65
T21: W 1.31 | C 2.07 | F 1.96 | M 2.3 | L 2.12 | K 2.97 | V 1.7 | I 2.84 | Y 2.42

Variants of: B2
Experiment: as above
Details: c terminus: a fixed tail appended

Protein stability index, by site and new letter:
T6: D 2.37 | W 1.1 | C 1.92 | Q 2.03 | E 2.62 | I 2.17 | K 3.73 | S 2.96 | A 1.74 | Y 1.58
D18: C 2.22 | K 1.98 | A 4 | S 1.52 | M 1.36 | H 1.08 | N 1.8 | P 3.1 | I 4.08
T12: M 1.58 | S 2.28 | K 2.6 | N 2.79 | H 1.35 | D 3.56 | V 2.03 | I 1.54 | E 3.43 | R 2.59 | Q 1.6 | Y 1.49 | F 1.4 | W 1.87
L19: N 3.75 | A 3.97 | M 3 | D 4.31 | T 4.11 | G 4.45 | I 2.03 | V 2.27 | S 4 | C 2.8 | K 4.38 | E 4.55 | Y 3.19 | F 2.43
Q8: S 3.33 | P 2.49 | E 2.26 | T 4.32 | K 1.38 | N 2.26 | G 3.19 | M 2.09 | D 1.24 | R 2.88 | Y 1.56
G2: L 1.74 | V 1.39 | D 2.53 | N 2.01 | K 3.03 | Q 2.69 | S 1.84 | I 1.28 | C 3.68 | P 2.31 | R 2.06 | H 1.07 | A 2.29 | T 4.39 | Y 2.53 | E 1.91
L15: R 3.9 | F 2.18 | I 1.75 | Q 4.28 | T 3.67 | W 2.07 | Y 1.84 | N 4.18 | V 2.53 | A 3.7 | S 4.04 | G 3.75 | E 4.54 | P 3.82 | K 4.4 | H 3.54
V13: L 2.07 | N 3.08 | M 2.77 | I 1.06 | C 2.04 | E 3.95 | F 1.37 | D 5.09 | R 2.7 | K 2.18 | T 2.44 | P 3.82
E20: M 1.68 | Q 2.23 | G 2.13 | N 2.08 | H 1.26 | L 2.12 | T 1.48 | S 1.75 | D 1.56 | R 1.61 | F 2.34 | K 1.93 | P 3.09
R5: Q 2.05 | E 2.67 | V 3.3 | N 2.74 | Y 2.33 | P 1.84 | L 2.27 | C 1.13 | I 1.85 | A 1.95 | W 2.76 | K 2.1 | G 1.64 | F 1.74 | H 3.25 | D 2.39 | T 1.46
W7: V 2.44 | C 2.79 | L 2.03 | I 2.5 | P 2.45 | H 2.83 | M 2.36 | G 3.22 | N 4.06 | A 3.35 | E 4.3 | D 4.15 | R 3.68 | F 2.91
V17: G 3.17 | S 3.21 | N 4.01 | R 3.11 | D 4.56 | C 1.92 | Q 3.97 | Y 2.39 | W 1.58 | I 2.54 | F 1.78 | M 1.85 | L 2.34 | E 4.81
S10: V 2.92 | E 3.06 | C 2.18 | T 1.99 | N 1.6 | R 2.08 | A 1.92 | D 3.02 | P 2.36 | H 1.04 | Q 1.9 | G 1.01
A3: S 1.4 | K 1.65 | C 2.55 | N 1.73 | P 1.13 | Y 2.5 | R 1.79 | E 1.81 | H 1.39 | D 1.53 | M 2.51 | I 1.09 | V 1.41
D1: T 3.05 | N 1.32 | K 4.34 | H 2.29 | E 1.69 | W 2.93 | G 1.68 | Q 1.53
K14: T 1.61 | G 1.91 | D 1.91 | Q 1.63 | H 1.42 | S 1.61 | N 1.74 | P 3.03 | A 1.96 | R 1.83 | W 1.5 | E 1.88
D9: V 2.09 | E 1.5 | H 1.09 | N 2.92 | R 3.52
D11: A 2.27 | S 1.52 | G 1.18 | F 2.77 | P 1.66 | K 1.53 | R 1.13 | I 3.92 | E 2.08 | Q 3.09 | N 2.14
L16: T 3.66 | E 3.69 | G 3.57 | Y 1.82 | N 3.94 | K 4.25 | R 2.98 | Q 3.31 | D 3.52 | W 2.88 | V 1.42 | C 1.99 | M 2.02 | P 3.38 | I 2.57 | S 3.36
G4: A 1.8 | R 1.93 | P 2.12 | Y 3.85 | T 2.05 | L 2.34 | F 2.26 | I 2.38 | K 2.63 | S 2.01 | E 2.58 | M 1.35 | H 1.62 | Q 1.43 | C 2.02 | V 2.22 | N 2.05
